*1 amine or outer side, *2 acyl side, *3 side chain or, on linkers, in order; H or OH if unused. Where no end group is shown, it is not given here. Side-chain parts run from the residue outwards. [ ]: non-standard residue; d: D form. The star is where a group is joined. C16 diacid = O=C(O)CCCCCCCCCCCCCCC(=O)*; γGlu = O=C(O)[C@H](CCC(=O)[*:2])N[*:1]; Decanoyl = CCCCCCCCCC(=O)*; Aib = CC(C)(N)C(=O)O
T1: human glucose-dependent insulinotropic polypeptide receptor (human, UniProt P48546 22-466)
T1 sequence (looked up): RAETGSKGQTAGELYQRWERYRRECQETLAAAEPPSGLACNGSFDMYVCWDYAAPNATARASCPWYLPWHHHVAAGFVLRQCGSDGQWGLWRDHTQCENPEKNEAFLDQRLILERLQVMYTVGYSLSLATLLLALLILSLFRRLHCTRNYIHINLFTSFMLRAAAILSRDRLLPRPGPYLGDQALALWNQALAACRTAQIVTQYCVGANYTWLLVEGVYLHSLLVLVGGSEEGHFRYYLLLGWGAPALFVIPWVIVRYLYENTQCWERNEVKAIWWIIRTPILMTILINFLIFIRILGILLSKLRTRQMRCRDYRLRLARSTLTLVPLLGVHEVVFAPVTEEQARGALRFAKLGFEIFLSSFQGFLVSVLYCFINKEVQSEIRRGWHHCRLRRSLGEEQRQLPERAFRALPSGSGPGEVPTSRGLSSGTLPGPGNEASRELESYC

T2: human glucagon-like peptide-2 receptor (human, UniProt O95838 1-553)
T2 sequence (looked up): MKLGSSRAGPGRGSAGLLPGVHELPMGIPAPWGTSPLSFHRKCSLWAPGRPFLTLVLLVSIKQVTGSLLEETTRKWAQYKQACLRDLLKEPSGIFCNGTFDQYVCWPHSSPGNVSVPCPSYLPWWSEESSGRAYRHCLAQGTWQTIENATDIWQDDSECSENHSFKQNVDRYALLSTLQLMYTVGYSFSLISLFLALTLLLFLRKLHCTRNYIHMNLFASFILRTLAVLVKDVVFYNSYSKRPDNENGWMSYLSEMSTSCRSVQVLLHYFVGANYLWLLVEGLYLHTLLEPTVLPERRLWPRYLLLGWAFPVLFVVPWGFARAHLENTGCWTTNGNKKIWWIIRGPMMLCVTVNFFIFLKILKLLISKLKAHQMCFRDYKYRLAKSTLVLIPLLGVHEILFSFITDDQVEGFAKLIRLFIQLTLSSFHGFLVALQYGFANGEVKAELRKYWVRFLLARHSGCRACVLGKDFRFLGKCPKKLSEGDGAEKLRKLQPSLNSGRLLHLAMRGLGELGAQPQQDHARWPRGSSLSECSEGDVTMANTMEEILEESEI

B1: Compound no. 23 (peptide)
peptide: {C16 diacid}-H[Aib]DGTFISDYST[Aib]LDKLAARDFINWLIETKITK-OH
SMILES: CC[C@H](C)[C@H](NC(=O)[C@H](Cc1ccccc1)NC(=O)[C@H](CC(=O)O)NC(=O)[C@H](CCCNC(=N)N)NC(=O)[C@H](C)NC(=O)[C@H](C)NC(=O)[C@H](CC(C)C)NC(=O)[C@H](CCCCN)NC(=O)[C@H](CC(=O)O)NC(=O)[C@H](CC(C)C)NC(=O)C(C)(C)NC(=O)[C@@H](NC(=O)[C@H](CO)NC(=O)[C@H](Cc1ccc(O)cc1)NC(=O)[C@H](CC(=O)O)NC(=O)[C@H](CO)NC(=O)[C@@H](NC(=O)[C@H](Cc1ccccc1)NC(=O)[C@@H](NC(=O)CNC(=O)[C@H](CC(=O)O)NC(=O)C(C)(C)NC(=O)[C@H](Cc1c[nH]cn1)NC(=O)CCCCCCCCCCCCCCC(=O)O)[C@@H](C)O)[C@@H](C)CC)[C@@H](C)O)C(=O)N[C@@H](CC(N)=O)C(=O)N[C@@H](Cc1c[nH]c2ccccc12)C(=O)N[C@@H](CC(C)C)C(=O)N[C@H](C(=O)N[C@@H](CCC(=O)O)C(=O)N[C@H](C(=O)N[C@@H](CCCCN)C(=O)N[C@H](C(=O)N[C@H](C(=O)N[C@@H](CCCCN)C(=O)O)[C@@H](C)O)[C@@H](C)CC)[C@@H](C)O)[C@@H](C)CC
B2: Compound no. 24 (peptide)
peptide: H[Aib]DGK([γGlu-Decanoyl])FISDYST[Aib]LDNLAARDFINWLIQTKITK-OH
modifications: N-terminus assumed
SMILES: CCCCCCCCCC(=O)N[C@@H](CCC(=O)NCCCC[C@H](NC(=O)CNC(=O)[C@H](CC(=O)O)NC(=O)C(C)(C)NC(=O)[C@@H](N)Cc1c[nH]cn1)C(=O)N[C@@H](Cc1ccccc1)C(=O)N[C@H](C(=O)N[C@@H](CO)C(=O)N[C@@H](CC(=O)O)C(=O)N[C@@H](Cc1ccc(O)cc1)C(=O)N[C@@H](CO)C(=O)N[C@H](C(=O)NC(C)(C)C(=O)N[C@@H](CC(C)C)C(=O)N[C@@H](CC(=O)O)C(=O)N[C@@H](CC(N)=O)C(=O)N[C@@H](CC(C)C)C(=O)N[C@@H](C)C(=O)N[C@@H](C)C(=O)N[C@@H](CCCNC(=N)N)C(=O)N[C@@H](CC(=O)O)C(=O)N[C@@H](Cc1ccccc1)C(=O)N[C@H](C(=O)N[C@@H](CC(N)=O)C(=O)N[C@@H](Cc1c[nH]c2ccccc12)C(=O)N[C@@H](CC(C)C)C(=O)N[C@H](C(=O)N[C@@H](CCC(N)=O)C(=O)N[C@H](C(=O)N[C@@H](CCCCN)C(=O)N[C@H](C(=O)N[C@H](C(=O)N[C@@H](CCCCN)C(=O)O)[C@@H](C)O)[C@@H](C)CC)[C@@H](C)O)[C@@H](C)CC)[C@@H](C)CC)[C@@H](C)O)[C@@H](C)CC)C(=O)O
B3: Compound no. 25 (peptide)
peptide: H[Aib]DGK([γGlu-C16 diacid])FISDYST[Aib]LDNLAARDFINWLIQTKITK-OH
modifications: N-terminus assumed
SMILES: CC[C@H](C)[C@H](NC(=O)[C@H](Cc1ccccc1)NC(=O)[C@H](CCCCNC(=O)CC[C@H](NC(=O)CCCCCCCCCCCCCCC(=O)O)C(=O)O)NC(=O)CNC(=O)[C@H](CC(=O)O)NC(=O)C(C)(C)NC(=O)[C@@H](N)Cc1c[nH]cn1)C(=O)N[C@@H](CO)C(=O)N[C@@H](CC(=O)O)C(=O)N[C@@H](Cc1ccc(O)cc1)C(=O)N[C@@H](CO)C(=O)N[C@H](C(=O)NC(C)(C)C(=O)N[C@@H](CC(C)C)C(=O)N[C@@H](CC(=O)O)C(=O)N[C@@H](CC(N)=O)C(=O)N[C@@H](CC(C)C)C(=O)N[C@@H](C)C(=O)N[C@@H](C)C(=O)N[C@@H](CCCNC(=N)N)C(=O)N[C@@H](CC(=O)O)C(=O)N[C@@H](Cc1ccccc1)C(=O)N[C@H](C(=O)N[C@@H](CC(N)=O)C(=O)N[C@@H](Cc1c[nH]c2ccccc12)C(=O)N[C@@H](CC(C)C)C(=O)N[C@H](C(=O)N[C@@H](CCC(N)=O)C(=O)N[C@H](C(=O)N[C@@H](CCCCN)C(=O)N[C@H](C(=O)N[C@H](C(=O)N[C@@H](CCCCN)C(=O)O)[C@@H](C)O)[C@@H](C)CC)[C@@H](C)O)[C@@H](C)CC)[C@@H](C)CC)[C@@H](C)O
B4: Compound no. 21 (peptide)
peptide: {C16 diacid}-H[Aib]EGTFISDYST[Aib]LDKLAARDFINWLIQTKITK-OH
SMILES: CC[C@H](C)[C@H](NC(=O)[C@H](Cc1ccccc1)NC(=O)[C@H](CC(=O)O)NC(=O)[C@H](CCCNC(=N)N)NC(=O)[C@H](C)NC(=O)[C@H](C)NC(=O)[C@H](CC(C)C)NC(=O)[C@H](CCCCN)NC(=O)[C@H](CC(=O)O)NC(=O)[C@H](CC(C)C)NC(=O)C(C)(C)NC(=O)[C@@H](NC(=O)[C@H](CO)NC(=O)[C@H](Cc1ccc(O)cc1)NC(=O)[C@H](CC(=O)O)NC(=O)[C@H](CO)NC(=O)[C@@H](NC(=O)[C@H](Cc1ccccc1)NC(=O)[C@@H](NC(=O)CNC(=O)[C@H](CCC(=O)O)NC(=O)C(C)(C)NC(=O)[C@H](Cc1c[nH]cn1)NC(=O)CCCCCCCCCCCCCCC(=O)O)[C@@H](C)O)[C@@H](C)CC)[C@@H](C)O)C(=O)N[C@@H](CC(N)=O)C(=O)N[C@@H](Cc1c[nH]c2ccccc12)C(=O)N[C@@H](CC(C)C)C(=O)N[C@H](C(=O)N[C@@H](CCC(N)=O)C(=O)N[C@H](C(=O)N[C@@H](CCCCN)C(=O)N[C@H](C(=O)N[C@H](C(=O)N[C@@H](CCCCN)C(=O)O)[C@@H](C)O)[C@@H](C)CC)[C@@H](C)O)[C@@H](C)CC
B5: Compound no. 22 (peptide)
peptide: {C16 diacid}-H[Aib]DGTFISDYST[Aib]LDKLAARDFIEWLIQTKITK-OH
SMILES: CC[C@H](C)[C@H](NC(=O)[C@H](Cc1ccccc1)NC(=O)[C@H](CC(=O)O)NC(=O)[C@H](CCCNC(=N)N)NC(=O)[C@H](C)NC(=O)[C@H](C)NC(=O)[C@H](CC(C)C)NC(=O)[C@H](CCCCN)NC(=O)[C@H](CC(=O)O)NC(=O)[C@H](CC(C)C)NC(=O)C(C)(C)NC(=O)[C@@H](NC(=O)[C@H](CO)NC(=O)[C@H](Cc1ccc(O)cc1)NC(=O)[C@H](CC(=O)O)NC(=O)[C@H](CO)NC(=O)[C@@H](NC(=O)[C@H](Cc1ccccc1)NC(=O)[C@@H](NC(=O)CNC(=O)[C@H](CC(=O)O)NC(=O)C(C)(C)NC(=O)[C@H](Cc1c[nH]cn1)NC(=O)CCCCCCCCCCCCCCC(=O)O)[C@@H](C)O)[C@@H](C)CC)[C@@H](C)O)C(=O)N[C@@H](CCC(=O)O)C(=O)N[C@@H](Cc1c[nH]c2ccccc12)C(=O)N[C@@H](CC(C)C)C(=O)N[C@H](C(=O)N[C@@H](CCC(N)=O)C(=O)N[C@H](C(=O)N[C@@H](CCCCN)C(=O)N[C@H](C(=O)N[C@H](C(=O)N[C@@H](CCCCN)C(=O)O)[C@@H](C)O)[C@@H](C)CC)[C@@H](C)O)[C@@H](C)CC
B6: Compound no. 20 (peptide)
peptide: {C16 diacid}-H[Aib]DGTFISDYST[Aib]LDALAARDFIEWLIQTKITK-OH
SMILES: CC[C@H](C)[C@H](NC(=O)[C@H](Cc1ccccc1)NC(=O)[C@H](CC(=O)O)NC(=O)[C@H](CCCNC(=N)N)NC(=O)[C@H](C)NC(=O)[C@H](C)NC(=O)[C@H](CC(C)C)NC(=O)[C@H](C)NC(=O)[C@H](CC(=O)O)NC(=O)[C@H](CC(C)C)NC(=O)C(C)(C)NC(=O)[C@@H](NC(=O)[C@H](CO)NC(=O)[C@H](Cc1ccc(O)cc1)NC(=O)[C@H](CC(=O)O)NC(=O)[C@H](CO)NC(=O)[C@@H](NC(=O)[C@H](Cc1ccccc1)NC(=O)[C@@H](NC(=O)CNC(=O)[C@H](CC(=O)O)NC(=O)C(C)(C)NC(=O)[C@H](Cc1c[nH]cn1)NC(=O)CCCCCCCCCCCCCCC(=O)O)[C@@H](C)O)[C@@H](C)CC)[C@@H](C)O)C(=O)N[C@@H](CCC(=O)O)C(=O)N[C@@H](Cc1c[nH]c2ccccc12)C(=O)N[C@@H](CC(C)C)C(=O)N[C@H](C(=O)N[C@@H](CCC(N)=O)C(=O)N[C@H](C(=O)N[C@@H](CCCCN)C(=O)N[C@H](C(=O)N[C@H](C(=O)N[C@@H](CCCCN)C(=O)O)[C@@H](C)O)[C@@H](C)CC)[C@@H](C)O)[C@@H](C)CC

target: T1, human glucose-dependent insulinotropic …; assay: cell-based or functional assay

Efficacy GIPR [%]	Binder
107	B1
113	B2
93	B3
86	B4
91	B5
93	B6

target: T2, human glucagon-like peptide-2 receptor; assay: cell-based or functional assay

Efficacy GLP-2R [%]	logEC50 GLP-2R	Binder
86	8.8	B1
90		B2
88	9	B3
58		B4
95		B5
88		B6
